The values that follow come from US20240368280A1 (DEUTSCHES KREBSFORSCHUNGSZENTRUM STIFTUNG DES FFENTLICHEN …, published 2024).

The term Kd denotes the constant that tells how readily two partners part at equilibrium. Low values mean a tighter complex, high ones a looser complex.

A value given as a limit tells only on which side of the number the result lay.

For assay [1], the target named is T1, Human Fcγ receptor I (human, UniProt P12314 16-288).
T1 construct: Bought protein; also called Fcγ RI
Description: SPR (Biacore T200), His-tagged FcγR captured via anti-His IgG, antibody as analyte 0.04-25 µM, steady-state affinity. The protocol: (§1) Binding assays were performed on a Biacore T200 instrument (Cytiva) at 25° C. using assay buffer HBS EP+supplemented with 500 mM NaCl. Fcγ receptors were captured via anti-penta his-tag IgGs (“His capture kit”, Order No. 2895056, Cytiva) covalently amine coupled to a Series S CM5 sensor chip (Cytiva). The amine coupling was carried out according to the manufacturer's instructions using 1-ethyl-3-(3-dimethylaminopropyl) carbodiimide hydrochloride (EDC), N-hydroxysuccinimide (NHS) and ethanolamine HCl, pH 8.5 (“Amine Coupling Kit” BR-1000-50, Cytiva.). Human Fcγ receptor I (R&D Systems, Order No. 1257-FC), Fcγ receptor IIa (R&D Systems, Order No. 1330-CD/F), Fcγ receptor IIb/c (R&D Systems, Order No. 1875-CD), Fcγ receptor IIIa (R&D Systems, Order No. 4325-FC) and Fcγ receptor IIIb (R&D Systems, Order No. 1597-FC) were captured to ˜30 RU.
(§2) Anti-CEACAM6 engineered antibodies were used as analytes in a concentration series from 0.04-25 μM in multi cycle kinetics mode. The sensor surface was regenerated with glycine pH 1.5 after each analyte injection. Obtained sensorgrams were double referenced (subtraction of reference flow cell signal and buffer injection) and were fitted to a 1:1 Langmuir binding model to derive steady-state affinity data using the Biacore T200 Evaluation software.
For orientation: Surface plasmon resonance follows binding to a sensor surface in real time, without labels.

In assay [2] the target is T2, Human Fcγ receptor IIIa (human, UniProt P08637 17-208, limits assumed).
T2 construct: Bought protein; also called Fcγ RIIIa
Description: SPR (Biacore T200), His-tagged FcγR captured via anti-His IgG, antibody as analyte 0.04-25 µM, steady-state affinity; clear binding response. The method, then:
as §1, §2

Assay [3] addresses T3, Human Fcγ receptor IIIb (human, UniProt O75015 20-208, limits assumed).
T3 construct: Bought protein; also called Fcγ RIIIb
Put plainly: SPR (Biacore T200), His-tagged FcγR captured via anti-His IgG, antibody as analyte, steady-state. The method, then: as §1, §2

For assay [4], the target named is T4, Human Fcγ receptor IIa (human, UniProt P12318 36-218, limits assumed).
T4 construct: Bought protein; also called Fcγ RIIa
T4 sequence (looked up): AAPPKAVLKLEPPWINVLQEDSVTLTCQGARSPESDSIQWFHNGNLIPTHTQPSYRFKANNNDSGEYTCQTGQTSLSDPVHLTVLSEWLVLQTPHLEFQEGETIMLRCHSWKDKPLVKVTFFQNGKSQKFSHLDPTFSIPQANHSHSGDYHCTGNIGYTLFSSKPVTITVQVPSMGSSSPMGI
The assay is described as above. The protocol:
as §1, §2

For assay [5], the target named is T5, Human Fcγ receptor IIb/c (human, UniProt P31994 46-217).
T5 construct: Bought protein; also called Fcγ RIIb/c
T5 sequence (looked up): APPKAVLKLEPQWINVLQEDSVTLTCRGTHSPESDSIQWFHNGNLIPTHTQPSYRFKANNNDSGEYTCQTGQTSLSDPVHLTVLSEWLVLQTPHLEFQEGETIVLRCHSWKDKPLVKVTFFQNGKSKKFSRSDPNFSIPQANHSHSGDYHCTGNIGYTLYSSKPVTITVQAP
Described as above. The method, then: as §1, §2

In assay [6] the target is T6, human CEACAM6 (carcinoembryonic antigen-related cell adhesion molecule 6) (human, UniProt P40199 35-320).
T6 sequence: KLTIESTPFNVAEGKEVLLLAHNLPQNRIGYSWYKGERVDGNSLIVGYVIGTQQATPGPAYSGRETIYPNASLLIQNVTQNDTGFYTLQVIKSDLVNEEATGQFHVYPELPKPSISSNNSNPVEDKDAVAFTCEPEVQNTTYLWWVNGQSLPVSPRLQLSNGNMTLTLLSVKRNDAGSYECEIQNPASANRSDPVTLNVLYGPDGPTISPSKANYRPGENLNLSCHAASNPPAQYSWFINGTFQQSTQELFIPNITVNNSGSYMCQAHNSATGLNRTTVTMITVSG
Put plainly: cell-based or functional assay.

Assay [7] deals with T1, Human Fcγ receptor I. Put plainly: SPR (Biacore T200), His-tagged FcγR captured via anti-His IgG, antibody as analyte, steady-state. The protocol: as §1, §2
Assay [8] addresses T2, Human Fcγ receptor IIIa. Description: SPR (Biacore T200), His-tagged FcγR captured via anti-His IgG, antibody as analyte 0.04-25 µM, steady-state affinity. The protocol:
as §1, §2

Assay [9] addresses T4, Human Fcγ receptor IIa. The assay is described as above. The method, then:
as §1, §2

In assay [10] the target is T1, Human Fcγ receptor I. Description: SPR (Biacore T200), His-tagged FcγR captured via anti-His IgG, antibody as analyte 0.04-25 µM, steady-state affinity; Table 3 experiment (engineered Fc variants), steady-state affinity. The method, then: as §1, §2
Assay [11] concerns the target T3, Human Fcγ receptor IIIb. Description: SPR (Biacore T200), His-tagged FcγR captured via anti-His IgG, antibody as analyte 0.04-25 µM, steady-state affinity; clear binding response. The method, then: as §1, §2
For assay [12], the target named is T5, Human Fcγ receptor IIb/c. The description is as above. The method, then:
as §1, §2

In assay [13] the target is T1, Human Fcγ receptor I. Put plainly: SPR (Biacore T200), His-tagged FcγR captured via anti-His IgG, antibody as analyte, steady-state affinity. The method, then:
as §1, §2

For assay [14], the target named is T2, Human Fcγ receptor IIIa. The assay is described as above. The protocol: as §1, §2
Assay [15] has as its target T3, Human Fcγ receptor IIIb. Described as above. The protocol: as §1, §2
Assay [16] concerns the target T4, Human Fcγ receptor IIa. The assay is described as above. The method, then: as §1, §2
Assay [17] has as its target T5, Human Fcγ receptor IIb/c. The description is as above. The method, then:
as §1, §2

The target in assay [18] is T2, Human Fcγ receptor IIIa. Description: SPR (Biacore T200), His-tagged FcγR captured via anti-His IgG, antibody as analyte, steady-state. The protocol:
as §1, §2

T1 sequence (P12314 16-288 limits assumed): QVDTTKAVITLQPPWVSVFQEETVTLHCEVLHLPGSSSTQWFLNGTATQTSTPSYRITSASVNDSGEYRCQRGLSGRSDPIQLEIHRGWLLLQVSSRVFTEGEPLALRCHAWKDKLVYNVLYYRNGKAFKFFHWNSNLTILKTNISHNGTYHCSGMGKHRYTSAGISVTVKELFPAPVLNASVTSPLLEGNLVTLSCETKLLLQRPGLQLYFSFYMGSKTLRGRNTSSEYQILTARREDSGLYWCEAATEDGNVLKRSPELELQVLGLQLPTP
T2 sequence (P08637 17-208 limits assumed): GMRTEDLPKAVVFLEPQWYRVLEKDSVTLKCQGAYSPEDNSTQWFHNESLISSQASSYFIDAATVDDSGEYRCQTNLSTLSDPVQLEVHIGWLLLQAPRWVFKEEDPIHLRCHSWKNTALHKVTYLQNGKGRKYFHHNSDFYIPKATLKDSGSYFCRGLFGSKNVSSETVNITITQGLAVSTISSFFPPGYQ
T3 sequence (O75015 20-208 limits assumed): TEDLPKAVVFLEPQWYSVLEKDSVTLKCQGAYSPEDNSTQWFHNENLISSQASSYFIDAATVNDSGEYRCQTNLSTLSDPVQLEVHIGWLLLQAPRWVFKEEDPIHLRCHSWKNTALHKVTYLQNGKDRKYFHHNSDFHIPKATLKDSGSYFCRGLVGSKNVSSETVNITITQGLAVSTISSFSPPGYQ

B1: CEACAM6-Human IgG1-LALA (TPP-19919) (antibody)
heavy: not shown
light: DIQLTQSPSFLSASVGDRVTITCKASQNVGTAVAWYQQKPGKAPKLLIYSASNRYTGVPSRFSGSGSGTEFTLTISSLQPEDFATYYCQQYSSYPLTFGGGTKVEIKRTVAAPSVFIFPPSDEQLKSGTASVVCLLNNFYPREAKVQWKVDNALQSGNSQESVTEQDSKDSTYSLSSTLTLSKADYEKHKVYACEVTHQGLSSPVTKSFNRGEC
notes: Human IgG1 with L234A/L235A (EU numbering)
As for B1, the equilibrium dissociation constant (Kd) was 3.7 µM in assay [1] and above 25 µM in assay [2]. For the same molecule, the binding result in assay [3], in assay [4] and in assay [5] was “no binding (tested: 0.04-25 µM)” throughout.

B2: CEACAM6-Human IgG2 (TPP-3310) (antibody)
heavy: QVTLRESGPALVKPTQTLTLTCTFSGFSLSTYGIGVGWIRQPPGKALEWLAHIWWNDNKYYSTSLKTRLTISKDTSKNQVVLTMTNMDPVDTATYYCARISLPYFDYWGQGTTLTVSSASTKGPSVFPLAPCSRSTSESTAALGCLVKDYFPEPVTVSWNSGALTSGVHTFPAVLQSSGLYSLSSVVTVPSSNFGTQTYTCNVDHKPSNTKVDKTVERKCCVECPPCPAPPVAGPSVFLFPPKPKDTLMISRTPEVTCVVVDVSHEDPEVQFNWYVDGVEVHNAKTKPREEQFNSTFRVVSVLTVVHQDWLNGKEYKCKVSNKGLPAPIEKTISKTKGQPREPQVYTLPPSREEMTKNQVSLTCLVKGFYPSDIAVEWESNGQPENNYKTTPPMLDSDGSFFLYSKLTVDKSRWQQGNVFSCSVMHEALHNHYTQKSLSLSPG
light: DIQLTQSPSFLSASVGDRVTITCKASQNVGTAVAWYQQKPGKAPKLLIYSASNRYTGVPSRFSGSGSGTEFTLTISSLQPEDFATYYCQQYSSYPLTFGGGTKVEIKRTVAAPSVFIFPPSDEQLKSGTASVVCLLNNFYPREAKVQWKVDNALQSGNSQESVTEQDSKDSTYSLSSTLTLSKADYEKHKVYACEVTHQGLSSPVTKSFNRGEC
notes: Human IgG2; expressed in HEK293 cells
Turning to B2, in [6], the “TILs IFNgamma production (co-culture with HCC2935 tumor cells), EC50” value stood at 0.7 µg/mL; the “TILs mediated HCC2935 killing (xCELLigence impedance assay), EC50” value amounted to 0.4 µg/mL; the “survivin specific T cells IFNgamma production (co-culture with HCC2935 tumor cells), EC50” value came to 0.5 µg/mL. For the same molecule, the binding result in [7] is recorded as “no binding (tested: Highest concentration used was 16 µM)”. Besides, in assay [3], the binding result is listed as “no binding (tested: Highest concentration used was 16 µM)”. Further, in [4], the binding result was “no binding (tested: Highest concentration used was 16 µM)”.

B3: CEACAM6-Human IgG1 (TPP-5468) (antibody)
heavy: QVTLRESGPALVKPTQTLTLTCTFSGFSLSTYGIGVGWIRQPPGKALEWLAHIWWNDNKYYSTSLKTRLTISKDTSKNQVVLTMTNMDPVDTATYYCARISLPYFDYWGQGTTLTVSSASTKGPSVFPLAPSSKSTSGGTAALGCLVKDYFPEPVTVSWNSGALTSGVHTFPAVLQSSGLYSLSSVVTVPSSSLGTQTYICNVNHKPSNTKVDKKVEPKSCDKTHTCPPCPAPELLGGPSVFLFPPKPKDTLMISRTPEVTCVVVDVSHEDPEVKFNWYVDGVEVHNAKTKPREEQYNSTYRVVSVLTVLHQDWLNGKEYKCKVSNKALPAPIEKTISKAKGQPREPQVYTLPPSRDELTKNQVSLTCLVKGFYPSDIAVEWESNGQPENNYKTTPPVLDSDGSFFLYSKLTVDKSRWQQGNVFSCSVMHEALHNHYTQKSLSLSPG
light: DIQLTQSPSFLSASVGDRVTITCKASQNVGTAVAWYQQKPGKAPKLLIYSASNRYTGVPSRFSGSGSGTEFTLTISSLQPEDFATYYCQQYSSYPLTFGGGTKVEIKRTVAAPSVFIFPPSDEQLKSGTASVVCLLNNFYPREAKVQWKVDNALQSGNSQESVTEQDSKDSTYSLSSTLTLSKADYEKHKVYACEVTHQGLSSPVTKSFNRGEC
notes: expressed in HEK293 cells; also called hIgG1; anti-CEACAM6 human IgG1 format
Consider B3, for which the Kd is 4.9 µM in assay [8]; 21 µM in assay [9]; 0.016 µM in [10]; above 25 µM in assay [11]; above 25 µM in [12]; 0.32 µM in [13]. For the same molecule, the Kd was 1 µM in assay [14], 7.4 µM in assay [15], 7.3 µM in assay [16] and 11 µM in assay [17].

B4: CEACAM6-Human IgG1-LALAaglyco (TPP-21518) (antibody)
heavy: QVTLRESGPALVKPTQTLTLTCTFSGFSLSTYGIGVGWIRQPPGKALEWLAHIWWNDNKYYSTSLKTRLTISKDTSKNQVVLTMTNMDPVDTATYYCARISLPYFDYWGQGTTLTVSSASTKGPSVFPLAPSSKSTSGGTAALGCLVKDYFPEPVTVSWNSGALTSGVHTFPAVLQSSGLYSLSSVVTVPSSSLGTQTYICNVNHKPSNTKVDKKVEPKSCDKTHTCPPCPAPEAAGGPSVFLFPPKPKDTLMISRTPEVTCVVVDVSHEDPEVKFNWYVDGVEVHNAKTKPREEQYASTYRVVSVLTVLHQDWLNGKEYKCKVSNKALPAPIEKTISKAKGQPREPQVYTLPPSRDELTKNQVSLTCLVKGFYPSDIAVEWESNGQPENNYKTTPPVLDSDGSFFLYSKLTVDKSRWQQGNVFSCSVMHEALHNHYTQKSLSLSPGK
light: DIQLTQSPSFLSASVGDRVTITCKASQNVGTAVAWYQQKPGKAPKLLIYSASNRYTGVPSRFSGSGSGTEFTLTISSLQPEDFATYYCQQYSSYPLTFGGGTKVEIKRTVAAPSVFIFPPSDEQLKSGTASVVCLLNNFYPREAKVQWKVDNALQSGNSQESVTEQDSKDSTYSLSSTLTLSKADYEKHKVYACEVTHQGLSSPVTKSFNRGEC
notes: Human IgG1 with L234A/L235A/N297A (EU numbering); also called IgG1 LALAaglyco anti-CEACAM6 antibody
On to B4, for which the “TILs IFNgamma production (co-culture with HCC2935 tumor cells), EC50” value in assay [6] is 0.5 µg/mL. Moreover, the “TILs mediated HCC2935 killing (xCELLigence impedance assay, 100 h), EC50” value in [6] stood at 0.43 µg/mL. Further, in assay [6], the “survivin specific T cells IFNgamma production (co-culture with HCC2935 tumor cells), EC50” value is 0.55 µg/mL. The binding result in assay [7], in assay [18], in assay [3], in assay [4] and in assay [5] was “no binding (tested: 0.04-25 µM)” in each case.

B5: CEACAM6-Human IgG1-aglyco (TPP-10914) (antibody)
heavy: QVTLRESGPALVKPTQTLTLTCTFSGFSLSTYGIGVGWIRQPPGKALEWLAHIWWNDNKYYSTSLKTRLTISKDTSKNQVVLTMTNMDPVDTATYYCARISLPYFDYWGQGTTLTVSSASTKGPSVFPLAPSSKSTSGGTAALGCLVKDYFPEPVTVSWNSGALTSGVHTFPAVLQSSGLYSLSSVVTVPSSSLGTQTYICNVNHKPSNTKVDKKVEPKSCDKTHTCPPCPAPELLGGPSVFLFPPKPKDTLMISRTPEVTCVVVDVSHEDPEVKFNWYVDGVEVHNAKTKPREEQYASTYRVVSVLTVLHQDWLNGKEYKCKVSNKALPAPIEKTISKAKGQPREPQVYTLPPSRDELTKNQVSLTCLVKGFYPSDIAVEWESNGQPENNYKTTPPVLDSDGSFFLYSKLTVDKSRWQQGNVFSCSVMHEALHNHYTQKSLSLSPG
light: DIQLTQSPSFLSASVGDRVTITCKASQNVGTAVAWYQQKPGKAPKLLIYSASNRYTGVPSRFSGSGSGTEFTLTISSLQPEDFATYYCQQYSSYPLTFGGGTKVEIKRTVAAPSVFIFPPSDEQLKSGTASVVCLLNNFYPREAKVQWKVDNALQSGNSQESVTEQDSKDSTYSLSSTLTLSKADYEKHKVYACEVTHQGLSSPVTKSFNRGEC
notes: Human IgG1 with N297A (EU numbering), aglycosylated
B5 came in with an equilibrium dissociation constant (Kd) in assay [1] of 1.2 µM. Besides, the binding result in assay [18], in assay [3], in assay [4] and in assay [5] was “no binding (tested: 0.04-25 µM)” each time.
